Assay results from publication PMC12415521 (Methods in molecular biology (Clifton, N.J.), 2023).
Read-outs that look alike come from different tables or passages of the source.

Key:
CD2 domain of cpSRP43 [1] = target: T1, CD2 domain of cpSRP43; test: ITC
T1 chain: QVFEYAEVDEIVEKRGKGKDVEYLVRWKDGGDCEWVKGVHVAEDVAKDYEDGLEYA

CD2 domain of cpSRP43 [2] = target: T1, CD2 domain of cpSRP43; test: ITC

Kd (CD2 domain of cpSRP43 [1]): 1270 nM | Kd (CD2 domain of cpSRP43 [2]): 1420 nM
Binder: APPGTARRKRKADS [54-peptide]
